Consider 1 molecule from patent US20180235193A1 (MINERVA BIOTECHNOLOGIES, published 2018).

The test has as its target T1, recombinant human NME7-AB (human, UniProt Q9Y5B8 92-376).
T1 construct: Truncated recombinant human NME7, about 33 kDa, active as a monomer; also called rhMNE7-AB
T1 sequence: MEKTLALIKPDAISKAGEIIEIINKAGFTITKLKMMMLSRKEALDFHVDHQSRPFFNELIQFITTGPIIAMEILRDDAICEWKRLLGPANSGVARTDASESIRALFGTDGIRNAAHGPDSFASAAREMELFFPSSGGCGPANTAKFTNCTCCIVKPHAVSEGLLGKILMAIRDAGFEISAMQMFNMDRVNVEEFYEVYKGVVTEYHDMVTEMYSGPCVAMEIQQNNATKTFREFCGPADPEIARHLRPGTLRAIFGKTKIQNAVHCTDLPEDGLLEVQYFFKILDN
The experiment in a line: sandwich ELISA, PSMGFR peptide coated on the surface, HRP signal.

B1: MUC1* extracellular domain peptide PSMGFR (peptide)
peptide: GTINVHDVETQFNQYKTEAASRYNLTISDVSVSDVPFPFSAQSGA
notes: Synthetic peptide; also called PSMGFR peptide; MUC1* peptide
As for B1, the binding result is “binds”.
